Biological target: VEGF (UniProt P15692)
Experiment: SPR (BIAcore)
Settings: Fab

Sequence of VEGF (P15692 other isoform, or with tags, fused parts or gaps): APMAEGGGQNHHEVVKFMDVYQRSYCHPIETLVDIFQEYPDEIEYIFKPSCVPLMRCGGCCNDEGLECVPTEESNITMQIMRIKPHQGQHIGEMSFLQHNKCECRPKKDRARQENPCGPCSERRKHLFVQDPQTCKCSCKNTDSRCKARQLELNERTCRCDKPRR

- Kd: 0.103 nM
Substance: anti-VEGF Fab (Lucentics) control

Reference: US20190203192A1
